Test results: publication PMC11475706, “ProEnd: a comprehensive database for identifying HbYX motif-containing proteins across the tree of life” (BMC Genomics, 2024)

Molecular target: T1, PAN-2 (MJ1494), HbYX ATPase from Methanocaldococcus jannaschii (Methanocaldococcus jannaschii, UniProt Q58889 1-371)
T1 construct: PAN-2 (MJ1494), Methanocaldococcus jannaschii, UniProt Q58889; The hexameric state is only an AlphaFold Multimer prediction, not a measurement; also called putative 26S proteasome regulatory subunit; source: E. coli BL21 star DE3 (pET-28a(+), IPTG), held on Ni-NTA agarose from clarified lysate and washed; not shown: His6, N-terminal, kept
T1 sequence (looked up): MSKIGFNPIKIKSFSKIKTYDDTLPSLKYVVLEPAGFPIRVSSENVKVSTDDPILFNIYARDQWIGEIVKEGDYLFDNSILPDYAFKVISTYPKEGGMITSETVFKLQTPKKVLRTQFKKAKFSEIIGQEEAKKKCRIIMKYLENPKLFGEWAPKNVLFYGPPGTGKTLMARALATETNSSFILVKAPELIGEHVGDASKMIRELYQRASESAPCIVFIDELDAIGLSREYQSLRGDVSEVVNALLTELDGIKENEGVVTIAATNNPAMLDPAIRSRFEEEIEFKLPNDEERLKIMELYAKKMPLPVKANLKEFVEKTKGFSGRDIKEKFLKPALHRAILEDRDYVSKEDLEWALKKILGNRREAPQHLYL
Assay: pull-down; 6His-PAN-2 held on Ni-NTA agarose, washed with 50 mM Tris, 100 mM NaCl, 2 mM ATP, 10 mM MgCl2; tagless T20S incubated 20 min at room temperature; washed; eluted with 150 mM imidazole; T20S in the eluate quantified by suc-LLVY-amc hydrolysis; control: Ni-NTA columns with T20S alone
Conditions: both partners purified

fold T20S pulled down against control Ni-NTA columns: 7 fold
B1: T20S proteasome (20S from Thermoplasma acidophilum) (complex)
chain 1: MQQGQMAYDRAITVFSPDGRLFQVEYAREAVKKGSTALGMKFANGVLLISDKKVRSRLIEQNSIEKIQLIDDYVAAVTSGLVADARVLVDFARISAQQEKVTYGSLVNIENLVKRVADQMQQYTQYGGVRPYGVSLIFAGIDQIGPRLFDCDPAGTINEYKATAIGSGKDAVVSFLEREYKENLPEKEAVTLGIKALKSSLEEGEELKAPEIASITVGNKYRIYDQEEVKKFL
chain 2: TTTVGITLKDAVIMATERRVTMENFIMHKNGKKLFQIDTYTGMTIAGLVGDAQVLVRYMKAELELYRLQRRVNMPIEAVATLLSNMLNQVKYMPYMVQLLVGGIDTAPHVFSIDAAGGSVEDIYASTGSGSPFVYGVLESQYSEKMTVDEGVDLVIRAISAAKQRDSASGGMIDVAVITRKDGYVQLPTDQIESRIRKLGLIL
notes: proteasome subunit alpha, Thermoplasma acidophilum; proteasome subunit beta, Thermoplasma acidophilum; The C-terminal 6His tag on the beta subunits is preceded by a TEV site, so residues of that site probably stay at the beta C-terminus after the cut (surmise); also called archaeal proteasome T20S; archaeal 20S proteasome; source: recombinant, expressed from pET-28a(+), purified (Ni-NTA, TEV cut, …)
